Assay results taken from publication PMC9352680, “A comprehensive thermodynamic model for RNA binding by the Saccharomyces cerevisiae Pumilio protein PUF4”.

T1: PUF4 RNA-binding domain (Saccharomyces cerevisiae, UniProt P25339 537-888)
T1 sequence: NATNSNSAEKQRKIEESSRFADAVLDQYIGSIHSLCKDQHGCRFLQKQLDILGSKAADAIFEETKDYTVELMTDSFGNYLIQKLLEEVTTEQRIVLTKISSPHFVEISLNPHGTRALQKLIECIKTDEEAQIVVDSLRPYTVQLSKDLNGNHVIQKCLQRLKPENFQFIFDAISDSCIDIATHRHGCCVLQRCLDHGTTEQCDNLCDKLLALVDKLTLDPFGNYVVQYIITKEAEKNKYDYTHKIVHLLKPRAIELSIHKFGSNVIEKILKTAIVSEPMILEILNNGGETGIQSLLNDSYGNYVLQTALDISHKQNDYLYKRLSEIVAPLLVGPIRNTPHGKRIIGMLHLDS


molecular target: T1, PUF4 RNA-binding domain; assay: Mg; RNA-MaP; 20 mM Na-HEPES pH 7.4, 30 mM KOAc, 0.75 mM MgCl2, 0.1% Tween-20, 5% glycerol, 0.1 mg/mL BSA, 2 mM DTT; 25 C; 0.0125-409.6 nM protein; conditions: tags: N-His6-TEV cleaved; C-SNAP kept, Cy3B-labelled; label: tethered on chip by stalled RNA polymerase

Binder | Kd [nM]
UCUCUUUUACACUAUUAAUUCUCUU (ssRNA) [Id_ii_S1_P4E.4_K4.3_C4.2_[C-2T]_H4.3_A4.1_F4.1_T4.2_[G10A]] | 1120
UCUCUUGUACACUAUUAUCUCUCUU (ssRNA) [Id_ii_S1_P4E.4_K4.3_C4.2_[C-2G]_H4.3_A4.1_F4.1_T4.2_[G10T]_[T11C]] | 0.681
UCUCUUGCACACUAUUAGUUCUCUU (ssRNA) [Id_ii_S1_P4E.4_K4.3_C4.2_[C-2G]_[T-1C]_H4.3_A4.1_F4.1_T4.2] | 347
UCUCUUUCACACUAUUACUUCUCUU (ssRNA) [Id_ii_S1_P4E.4_K4.3_C4.2_[C-2T]_[T-1C]_H4.3_A4.1_F4.1_T4.2_[G10C]] | > 2300
UCUCUUUGACACUAUUAACUCUCUU (ssRNA) [Id_ii_S1_P4E.4_K4.3_C4.2_[C-2T]_[T-1G]_H4.3_A4.1_F4.1_T4.2_[G10A]_[T11C]] | > 2300
UCUCUUAGACACUAUUAACUCUCUU (ssRNA) [Id_ii_S1_P4E.4_K4.3_C4.2_[C-2A]_[T-1G]_H4.3_A4.1_F4.1_T4.2_[G10A]_[T11C]] | > 2300
UCUCUUUGACACUAUUACUUCUCUU (ssRNA) [Id_ii_S1_P4E.4_K4.3_C4.2_[C-2T]_[T-1G]_H4.3_A4.1_F4.1_T4.2_[G10C]] | > 2300
UCUCUUUAACACUAUUACUUCUCUU (ssRNA) [Id_ii_S1_P4E.4_K4.3_C4.2_[C-2T]_[T-1A]_H4.3_A4.1_F4.1_T4.2_[G10C]] | > 2300
UCUCUUUUACACUAUUAGUUCUCUU (ssRNA) [Id_ii_S1_P4E.4_K4.3_C4.2_[C-2T]_H4.3_A4.1_F4.1_T4.2] | 1370
UCUCUUAGACACUAUUACAUCUCUU (ssRNA) [Id_ii_S1_P4E.4_K4.3_C4.2_[C-2A]_[T-1G]_H4.3_A4.1_F4.1_T4.2_[G10C]_[T11A]] | > 2300
UCUCUUUGACACUAUUACAUCUCUU (ssRNA) [Id_ii_S1_P4E.4_K4.3_C4.2_[C-2T]_[T-1G]_H4.3_A4.1_F4.1_T4.2_[G10C]_[T11A]] | > 2300
UCUCUUGUACACUAUUAAUUCUCUU (ssRNA) [Id_ii_S1_P4E.4_K4.3_C4.2_[C-2G]_H4.3_A4.1_F4.1_T4.2_[G10A]] | 1.04
UCUCUUUGACACUAUUAUCUCUCUU (ssRNA) [Id_ii_S1_P4E.4_K4.3_C4.2_[C-2T]_[T-1G]_H4.3_A4.1_F4.1_T4.2_[G10T]_[T11C]] | > 2300
UCUCUUUGACACUAUUAUAUCUCUU (ssRNA) [Id_ii_S1_P4E.4_K4.3_C4.2_[C-2T]_[T-1G]_H4.3_A4.1_F4.1_T4.2_[G10T]_[T11A]] | 2180
UCUCUUUGACACUAUUAUUUCUCUU (ssRNA) [Id_ii_S1_P4E.4_K4.3_C4.2_[C-2T]_[T-1G]_H4.3_A4.1_F4.1_T4.2_[G10T]] | > 2300
UCUCUUUGACACUAUUAGCUCUCUU (ssRNA) [Id_ii_S1_P4E.4_K4.3_C4.2_[C-2T]_[T-1G]_H4.3_A4.1_F4.1_T4.2_[T11C]] | > 2300
UCUCUUGUACACUAUUAGCUCUCUU (ssRNA) [Id_ii_S1_P4E.4_K4.3_C4.2_[C-2G]_H4.3_A4.1_F4.1_T4.2_[T11C]] | 0.962
UCUCUUGUACACUAUUAGUUCUCUU (ssRNA) [Id_ii_S1_P4E.4_K4.3_C4.2_[C-2G]_H4.3_A4.1_F4.1_T4.2] | 1.27
UCUCUUUCACACUAUUAUCUCUCUU (ssRNA) [Id_ii_S1_P4E.4_K4.3_C4.2_[C-2T]_[T-1C]_H4.3_A4.1_F4.1_T4.2_[G10T]_[T11C]] | > 2300
UCUCUUACACACUAUUACGUCUCUU (ssRNA) [Id_ii_S1_P4E.4_K4.3_C4.2_[C-2A]_[T-1C]_H4.3_A4.1_F4.1_T4.2_[G10C]_[T11G]] | > 2300
UCUCUUUGUAGUUUAUCUCUU (ssRNA) [Ic_S1_P4E.1_K4.1_C4.1_H4.1_A4.1_[T5G]_[A6T]_F4.1_T4.1] | 18.5
UCUCUUAGACACUAUUAAUUCUCUU (ssRNA) [Id_ii_S1_P4E.4_K4.3_C4.2_[C-2A]_[T-1G]_H4.3_A4.1_F4.1_T4.2_[G10A]] | > 2300
UCUCUUUUACACUAUUACCUCUCUU (ssRNA) [Id_ii_S1_P4E.4_K4.3_C4.2_[C-2T]_H4.3_A4.1_F4.1_T4.2_[G10C]_[T11C]] | 1320
UCUCUUUGUAGCUUAUCUCUU (ssRNA) [Ic_S1_P4E.1_K4.1_C4.1_H4.1_A4.1_[T5G]_[A6C]_F4.1_T4.1] | 28.6
UCUCUUGUACACUAUUAUUUCUCUU (ssRNA) [Id_ii_S1_P4E.4_K4.3_C4.2_[C-2G]_H4.3_A4.1_F4.1_T4.2_[G10T]] | 0.832

Binder | Kd [nM]
UCUCUUUUACACUAUUACUUCUCUU (ssRNA) [Id_ii_S1_P4E.4_K4.3_C4.2_[C-2T]_H4.3_A4.1_F4.1_T4.2_[G10C]] | 1160
UCUCUUUUACACUAUUAACUCUCUU (ssRNA) [Id_ii_S1_P4E.4_K4.3_C4.2_[C-2T]_H4.3_A4.1_F4.1_T4.2_[G10A]_[T11C]] | 977
UCUCUUGUACACUAUUAACUCUCUU (ssRNA) [Id_ii_S1_P4E.4_K4.3_C4.2_[C-2G]_H4.3_A4.1_F4.1_T4.2_[G10A]_[T11C]] | 0.968
UCUCUUUUACACUAUUACGUCUCUU (ssRNA) [Id_ii_S1_P4E.4_K4.3_C4.2_[C-2T]_H4.3_A4.1_F4.1_T4.2_[G10C]_[T11G]] | 1680
UCUCUUUGUUUAGUAUCUCUU (ssRNA) [Ib_S1_P4E.1_K4.1_C4.1_H4.1_[A4T]_A4.1_[T7G]_F4.1_T4.1] | 24.4
UCUCUUACACACUAUUACUUCUCUU (ssRNA) [Id_ii_S1_P4E.4_K4.3_C4.2_[C-2A]_[T-1C]_H4.3_A4.1_F4.1_T4.2_[G10C]] | > 2300
UCUCUUUUACACUAUUAUUUCUCUU (ssRNA) [Id_ii_S1_P4E.4_K4.3_C4.2_[C-2T]_H4.3_A4.1_F4.1_T4.2_[G10T]] | 1130
UCUCUUUAACACUAUUAGUUCUCUU (ssRNA) [Id_ii_S1_P4E.4_K4.3_C4.2_[C-2T]_[T-1A]_H4.3_A4.1_F4.1_T4.2] | > 2300
UCUCUUACACACUAUUAACUCUCUU (ssRNA) [Id_ii_S1_P4E.4_K4.3_C4.2_[C-2A]_[T-1C]_H4.3_A4.1_F4.1_T4.2_[G10A]_[T11C]] | > 2300
UCUCUUGUACACUAUUAUAUCUCUU (ssRNA) [Id_ii_S1_P4E.4_K4.3_C4.2_[C-2G]_H4.3_A4.1_F4.1_T4.2_[G10T]_[T11A]] | 1.07
UCUCUUUCACACUAUUACCUCUCUU (ssRNA) [Id_ii_S1_P4E.4_K4.3_C4.2_[C-2T]_[T-1C]_H4.3_A4.1_F4.1_T4.2_[G10C]_[T11C]] | > 2300
UCUCUUUGUCUAAUAUCUCUU (ssRNA) [Ib_S1_P4E.1_K4.1_C4.1_H4.1_[A4C]_A4.1_[T7A]_F4.1_T4.1] | 83.9
UCUCUUGUACACUAUUACCUCUCUU (ssRNA) [Id_ii_S1_P4E.4_K4.3_C4.2_[C-2G]_H4.3_A4.1_F4.1_T4.2_[G10C]_[T11C]] | 0.615
UCUCUUUUACACUAUUAUCUCUCUU (ssRNA) [Id_ii_S1_P4E.4_K4.3_C4.2_[C-2T]_H4.3_A4.1_F4.1_T4.2_[G10T]_[T11C]] | 1280
UCUCUUACACACUAUUACCUCUCUU (ssRNA) [Id_ii_S1_P4E.4_K4.3_C4.2_[C-2A]_[T-1C]_H4.3_A4.1_F4.1_T4.2_[G10C]_[T11C]] | > 2300
UCUCUUGCACACUAUUAAUUCUCUU (ssRNA) [Id_ii_S1_P4E.4_K4.3_C4.2_[C-2G]_[T-1C]_H4.3_A4.1_F4.1_T4.2_[G10A]] | 93.8
UCUCUUUUACACUAUUAUAUCUCUU (ssRNA) [Id_ii_S1_P4E.4_K4.3_C4.2_[C-2T]_H4.3_A4.1_F4.1_T4.2_[G10T]_[T11A]] | 944
UCUCUUUAACACUAUUAGCUCUCUU (ssRNA) [Id_ii_S1_P4E.4_K4.3_C4.2_[C-2T]_[T-1A]_H4.3_A4.1_F4.1_T4.2_[T11C]] | > 2300
UCUCUUUAACACUAUUAUUUCUCUU (ssRNA) [Id_ii_S1_P4E.4_K4.3_C4.2_[C-2T]_[T-1A]_H4.3_A4.1_F4.1_T4.2_[G10T]] | > 2300
UCUCUUUGUACGUUAUCUCUU (ssRNA) [Ic_S1_P4E.1_K4.1_C4.1_H4.1_A4.1_[T5C]_[A6G]_F4.1_T4.1] | 4.05
UCUCUUGUACACUAUUAAAUCUCUU (ssRNA) [Id_ii_S1_P4E.4_K4.3_C4.2_[C-2G]_H4.3_A4.1_F4.1_T4.2_[G10A]_[T11A]] | 0.983
UCUCUUACACACUAUUAGCUCUCUU (ssRNA) [Id_ii_S1_P4E.4_K4.3_C4.2_[C-2A]_[T-1C]_H4.3_A4.1_F4.1_T4.2_[T11C]] | > 2300
UCUCUUUGACACUAUUACCUCUCUU (ssRNA) [Id_ii_S1_P4E.4_K4.3_C4.2_[C-2T]_[T-1G]_H4.3_A4.1_F4.1_T4.2_[G10C]_[T11C]] | > 2300
UCUCUUUUACACUAUUAGCUCUCUU (ssRNA) [Id_ii_S1_P4E.4_K4.3_C4.2_[C-2T]_H4.3_A4.1_F4.1_T4.2_[T11C]] | 1600
